This is an account of results in US11035860B2, “Auto-active and intracellular mutant of MET” (Stichting Katholieke Universiteit, priority 2014, dated 2021).

“Also recorded” adds a separate entry of the source.

One test concerns the target T1, METΔ7-8 (Homo sapiens, UniProt P08581, DEL622-701).
T1 construct: the majority of MET protein was in a 180 kDa phosphorylated form, corresponding to the uncleaved truncated preform; endogenous in cells; host or cells: E98 glioma cells, serum-starved
In words: MET phosphorylation in serum-starved E98 cells (western blot). It counts as cell-based. As to conditions: FIG. 5. As to the method: (§1) All cell lines were maintained at 37° C. in the presence of 5% CO2. To examine HGF-induced MET activation, E98 and A549 cells were seeded in 6 wells plates. The next day cells were serum-starved overnight. The following day cells were treated for 10 minutes (min) with HGF (50 ng/mL, Miltenyi Biotec, Bergisch Gladbach, Germany).
(§2) Cell lysates were prepared using RIPA buffer containing protease and phosphatase inhibitors (Cell Signaling Technology, CST, Danvers, Mass., USA). RIPA extracts (20-40 μg per lane) and His-tagged proteins from conditioned media (equivalent of 20 μl conditioned medium) were subjected to PAGE on 8-10% polyacrylamide gels and western blotting according to standard procedures. Nitrocellulose blots (Whatman Optitran BA-S85, GE Healthcare, Little Chalfont, UK) were blocked with PBS/Odyssey Blocking Buffer (LI-COR Biosciences, Lincoln, Nebr., USA) (1:1), followed by overnight incubation with primary antibodies at 4° C. […] Biotin groups and primary antibodies were visualized using respectively streptavidin-680 (Molecular Probes, Life Technology) and appropriate secondary antibodies [goat-anti-rabbit-IRDye800 (Rockland Immunochemicals, Gilbertsville, Pa., USA) or Alexa Fluor 680 goat-anti-mouse IgG (Molecular Probes, Life Technologies)]. Blots were scanned on the Odyssey imager (LI-COR Biosciences).
In general terms: Immunoblotting shows a protein as a band on a membrane.

For test [1], the system named is AKT. Nature of the test: AKT phosphorylation in A549 cells (western blot). The test is classed as cell-based, human. To be noted: FIG. 5. The method, then: (§3) The E98 cell line and xenograft model and genetic analysis thereof have been described before (Caretti et al., 2011; Claes et al., 2008). E98, U87, A549, HEK-293T and TOV-112D cells were cultured in DMEM+4.5 g/L glucose medium (PAA Laboratories, Pasching, Austria) supplemented with 10% fetal calf serum (FCS) (PAA) and gentamycin (40 μg/mL). All cell lines were maintained at 37° C. in the presence of 5% CO2. To examine HGF-induced MET activation, E98 and A549 cells were seeded in 6 wells plates. The next day cells were serum-starved overnight. The following day cells were treated for 10 minutes (min) with HGF (50 ng/mL, Miltenyi Biotec, Bergisch Gladbach, Germany). In some experiments, prior to HGF incubation cells were incubated with the anti-MET llama VHH G2 (Heukers et al., 2014) or cabozantinib (XL-184, Exelixis, San Francisco, Calif.) for 60 min.
(§4) Cell lysates were prepared using RIPA buffer containing protease and phosphatase inhibitors (Cell Signaling Technology, CST, Danvers, Mass., USA). RIPA extracts (20-40 μg per lane) and His-tagged proteins from conditioned media (equivalent of 20 μl conditioned medium) were subjected to PAGE on 8-10% polyacrylamide gels and western blotting according to standard procedures. […]

For a further test, the target named is T2, wtMET (Homo sapiens, UniProt P08581).
T2 construct: in A549 cells the matured, cleaved MET protein was the predominant form; endogenous in cells; host or cells: A549 cells, serum-starved
Nature of the test: MET phosphorylation in serum-starved A549 cells (western blot). The test is classed as cell-based. To be noted: FIG. 1B, FIG. 5. The method, then: as §1, §2

Test [2] relates to AKT. Nature of the test: AKT phosphorylation in E98 cells (western blot). The test is classed as cell-based, human. As to conditions: serum-starved E98 cells; FIG. 5. The method, then: as §3, §4
In the next test the test system is lung cancer. As to conditions: phase II study, lung cancer (Spigel et al., 2013); cited from earlier work.

For “HGF: ligand Hepatocyte Growth Factor (HGF, Scatter Factor) of MET”, in the test with METΔ7-8, the “activation of the minority of processed β-fragment of MET” value is on record as “slight activation”. Moreover, in the test with METΔ7-8 (HGF 50 ng/mL 10 min, G2 or cabozantinib 60 min, FIG. 1B), the “overall MET phosphorylation levels” value was “did not further increase”. Further, the “levels of pAKT” value in the test on AKT [1] is reported as “increased levels of pAKT”; in the test with AKT [2], “neither G2 nor HGF treatment resulted in altered levels”. Besides, the MET phosphorylation result in the test with wtMET was “required for MET activation; also recorded: induced MET phosphorylation”.
In the case of “MetMab: antibody; MET activation inhibitor tested in a phase II study for lung cancer”, the “primary end point of prolonged survival” value in the test with lung cancer is listed as “failed to meet the primary end point”.
